Values of other authors in PMC6557900.
pKd: −log10 of the molar value.

Biological target: GHR pY487 pY487 region (Homo sapiens) (UniProt P10912)
Sequence (P10912 whole entry, looked up): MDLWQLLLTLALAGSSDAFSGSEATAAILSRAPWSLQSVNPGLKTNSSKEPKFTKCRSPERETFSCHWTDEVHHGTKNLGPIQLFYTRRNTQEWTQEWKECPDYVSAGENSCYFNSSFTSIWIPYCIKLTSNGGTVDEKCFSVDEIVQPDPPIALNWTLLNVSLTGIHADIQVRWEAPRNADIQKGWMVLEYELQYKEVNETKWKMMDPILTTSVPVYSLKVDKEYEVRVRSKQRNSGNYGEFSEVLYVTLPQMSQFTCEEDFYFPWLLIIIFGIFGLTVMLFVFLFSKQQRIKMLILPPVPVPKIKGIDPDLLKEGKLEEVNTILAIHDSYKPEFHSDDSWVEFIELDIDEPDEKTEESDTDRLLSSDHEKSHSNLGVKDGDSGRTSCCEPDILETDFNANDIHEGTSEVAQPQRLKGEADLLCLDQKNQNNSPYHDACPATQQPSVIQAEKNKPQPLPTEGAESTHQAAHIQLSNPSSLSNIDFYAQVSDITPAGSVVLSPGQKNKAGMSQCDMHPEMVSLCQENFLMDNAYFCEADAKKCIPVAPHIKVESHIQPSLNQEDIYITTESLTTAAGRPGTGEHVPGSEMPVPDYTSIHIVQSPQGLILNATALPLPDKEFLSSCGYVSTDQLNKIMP

Chain of SOCS2 (O14508 whole entry): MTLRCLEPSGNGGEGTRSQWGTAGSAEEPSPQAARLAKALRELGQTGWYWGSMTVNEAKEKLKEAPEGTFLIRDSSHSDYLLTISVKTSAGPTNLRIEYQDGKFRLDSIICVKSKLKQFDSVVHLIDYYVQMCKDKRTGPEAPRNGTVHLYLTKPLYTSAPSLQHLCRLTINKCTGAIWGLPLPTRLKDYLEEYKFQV

pKd: 4.95
Substance: SOCS2 (from UniProt O14508)
